Measured values from article PMC10397247.
Each block holds one binder with its values, some of them ahead of it.

How the values were obtained:
4H4033-AA = biological target: T1, 4H4033-AA; assay: two-hybrid library CCmax; settings: mean of both orientations;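 further: natural log of median RNA to DNA barcode read ratio; higher means stronger binding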
T1 chain: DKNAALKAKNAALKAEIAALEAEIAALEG

4H481-AA = biological target: T2, 4H481-AA; assay: two-hybrid library CCmax; settings: mean of both orientations;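 further: natural log of median RNA to DNA barcode read ratio; higher means stronger binding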
T2 chain: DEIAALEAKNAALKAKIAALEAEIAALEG

4H55-AA = biological target: T3, 4H55-AA; assay: two-hybrid library CCmax; settings: mean of both orientations;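 further: natural log of median RNA to DNA barcode read ratio; higher means stronger binding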
T3 chain: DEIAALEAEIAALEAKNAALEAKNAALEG

4H2536-AA = biological target: T4, 4H2536-AA; assay: two-hybrid library CCmax; settings: mean of both orientations;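 further: natural log of median RNA to DNA barcode read ratio; higher means stronger binding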
T4 chain: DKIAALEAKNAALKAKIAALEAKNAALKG

4H2726-AA = biological target: T5, 4H2726-AA; assay: two-hybrid library CCmax; settings: mean of both orientations
T5 chain: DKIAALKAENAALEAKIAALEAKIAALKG

4H3664-AA = biological target: T6, 4H3664-AA; assay: two-hybrid library CCmax; settings: mean of both orientations
T6 chain: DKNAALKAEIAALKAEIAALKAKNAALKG

4H2614-AA = biological target: T7, 4H2614-AA; assay: two-hybrid library CCmax; settings: mean of both orientations
T7 chain: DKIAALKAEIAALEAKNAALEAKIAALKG

4H2513-AA = biological target: T8, 4H2513-AA; assay: two-hybrid library CCmax; settings: mean of both orientations
T8 chain: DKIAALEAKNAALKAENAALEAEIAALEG

4H3605-AA = biological target: T9, 4H3605-AA; assay: two-hybrid library CCmax; settings: mean of both orientations
T9 chain: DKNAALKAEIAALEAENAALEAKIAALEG

4H2935-AA = biological target: T10, 4H2935-AA; assay: two-hybrid library CCmax; settings: mean of both orientations
T10 chain: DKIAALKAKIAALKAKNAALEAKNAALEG

4H3922-AA = biological target: T11, 4H3922-AA; assay: two-hybrid library CCmax; settings: mean of both orientations
T11 chain: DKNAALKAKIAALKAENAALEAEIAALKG

4H2608-AA = biological target: T12, 4H2608-AA; assay: two-hybrid library CCmax; settings: mean of both orientations
T12 chain: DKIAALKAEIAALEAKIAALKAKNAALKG

4H327-AA = biological target: T13, 4H327-AA; assay: two-hybrid library CCmax; settings: mean of both orientations
T13 chain: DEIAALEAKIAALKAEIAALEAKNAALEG

4H662-AA = biological target: T14, 4H662-AA; assay: two-hybrid library CCmax; settings: mean of both orientations
T14 chain: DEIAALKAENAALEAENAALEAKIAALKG

4H2238-AA = biological target: T15, 4H2238-AA; assay: two-hybrid library CCmax
T15 chain: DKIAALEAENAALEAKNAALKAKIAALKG

4H369-AA = biological target: T16, 4H369-AA; assay: two-hybrid library CCmax; settings: mean of both orientations
T16 chain: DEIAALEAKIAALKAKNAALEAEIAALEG

4H3625-AA = biological target: T17, 4H3625-AA; assay: two-hybrid library CCmax; settings: mean of both orientations
T17 chain: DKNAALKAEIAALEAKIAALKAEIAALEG

P8A-bN = biological target: T18, P8A-bN; assay: two-hybrid library CCNG1
T18 chain: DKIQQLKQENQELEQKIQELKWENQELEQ

P6A-bN = biological target: T19, P6A-bN; assay: two-hybrid library CCNG1
T19 chain: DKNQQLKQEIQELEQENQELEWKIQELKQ

P4A-bN = biological target: T20, P4A-bN; assay: two-hybrid library CCNG1
T20 chain: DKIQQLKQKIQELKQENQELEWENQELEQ

P9A-bN = biological target: T21, P9A-bN; assay: two-hybrid library CCNG1
T21 chain: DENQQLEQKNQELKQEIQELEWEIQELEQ

P7A-bN = biological target: T22, P7A-bN; assay: two-hybrid library CCNG1
T22 chain: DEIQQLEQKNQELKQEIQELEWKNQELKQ

4H454-bA = biological target: T23, 4H454-bA; assay: two-hybrid library CCNG1
T23 chain: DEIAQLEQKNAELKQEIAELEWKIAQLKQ

4H953-bA = biological target: T24, 4H953-bA; assay: two-hybrid library CCNG1
T24 chain: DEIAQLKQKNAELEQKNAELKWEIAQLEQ

4H3855-bA = biological target: T25, 4H3855-bA; assay: two-hybrid library CCNG1
T25 chain: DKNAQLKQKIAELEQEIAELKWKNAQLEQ

4H754-bA = biological target: T26, 4H754-bA; assay: two-hybrid library CCNG1
T26 chain: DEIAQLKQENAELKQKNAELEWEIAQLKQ

4H370-bA = biological target: T27, 4H370-bA; assay: two-hybrid library CCNG1
T27 chain: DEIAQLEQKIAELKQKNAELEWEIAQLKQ

4H2667-bA = biological target: T28, 4H2667-bA; assay: two-hybrid library CCNG1
T28 chain: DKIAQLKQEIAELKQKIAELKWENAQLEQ

4H338-bA = biological target: T29, 4H338-bA; assay: two-hybrid library CCNG1
T29 chain: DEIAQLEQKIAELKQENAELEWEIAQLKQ

4H607-bA = biological target: T30, 4H607-bA; assay: two-hybrid library CCNG1
T30 chain: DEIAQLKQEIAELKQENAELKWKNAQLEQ

4H3189-bA = biological target: T31, 4H3189-bA; assay: two-hybrid library CCNG1
T31 chain: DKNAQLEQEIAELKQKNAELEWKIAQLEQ

4H72-bA = biological target: T32, 4H72-bA; assay: two-hybrid library CCNG1
T32 chain: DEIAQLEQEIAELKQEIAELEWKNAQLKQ

4H908-bA = biological target: T33, 4H908-bA; assay: two-hybrid library CCNG1
T33 chain: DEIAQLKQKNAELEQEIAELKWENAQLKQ

4H3606-bA = biological target: T34, 4H3606-bA; assay: two-hybrid library CCNG1
T34 chain: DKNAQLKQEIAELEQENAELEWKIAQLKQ

4H918-bA = biological target: T35, 4H918-bA; assay: two-hybrid library CCNG1
T35 chain: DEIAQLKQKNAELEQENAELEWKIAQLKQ

4H883-bA = biological target: T36, 4H883-bA; assay: two-hybrid library CCNG1
T36 chain: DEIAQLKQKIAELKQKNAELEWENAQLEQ

4H3427-bA = biological target: T37, 4H3427-bA; assay: two-hybrid library CCNG1
T37 chain: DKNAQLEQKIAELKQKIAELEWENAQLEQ

4H797-bA = biological target: T38, 4H797-bA; assay: two-hybrid library CCNG1
T38 chain: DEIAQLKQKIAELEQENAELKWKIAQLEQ

4H3297-bA = biological target: T39, 4H3297-bA; assay: two-hybrid library CCNG1
T39 chain: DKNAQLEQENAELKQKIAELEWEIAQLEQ

4H3112-bA = biological target: T40, 4H3112-bA; assay: two-hybrid library CCNG1
T40 chain: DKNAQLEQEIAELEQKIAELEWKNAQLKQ

P4A-bS = biological target: T41, P4A-bS; assay: two-hybrid library CCNG1
T41 chain: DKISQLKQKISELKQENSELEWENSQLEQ

4H2729-bA = biological target: T42, 4H2729-bA; assay: two-hybrid library CCNG1
T42 chain: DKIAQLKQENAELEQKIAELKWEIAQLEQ

4H3354-bA = biological target: T43, 4H3354-bA; assay: two-hybrid library CCNG1
T43 chain: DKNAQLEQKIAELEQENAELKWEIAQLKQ

4H3843-bA = biological target: T44, 4H3843-bA; assay: two-hybrid library CCNG1
T44 chain: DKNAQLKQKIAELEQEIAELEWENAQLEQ

4H568-bA = biological target: T45, 4H568-bA; assay: two-hybrid library CCNG1
T45 chain: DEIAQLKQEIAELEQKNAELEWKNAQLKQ

4H462-bA = biological target: T46, 4H462-bA; assay: two-hybrid library CCNG1
T46 chain: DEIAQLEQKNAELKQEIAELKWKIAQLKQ

4H331-bA = biological target: T47, 4H331-bA; assay: two-hybrid library CCNG1
T47 chain: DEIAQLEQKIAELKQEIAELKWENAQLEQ

4H687-bA = biological target: T48, 4H687-bA; assay: two-hybrid library CCNG1
T48 chain: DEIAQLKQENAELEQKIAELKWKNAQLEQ

4H3782-bA = biological target: T49, 4H3782-bA; assay: two-hybrid library CCNG1
T49 chain: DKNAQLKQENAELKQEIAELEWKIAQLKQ

4H4001-bA = biological target: T50, 4H4001-bA; assay: two-hybrid library CCNG1
T50 chain: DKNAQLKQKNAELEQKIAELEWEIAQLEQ

4H3926-bH = biological target: T51, 4H3926-bH; assay: two-hybrid library CCNG1
T51 chain: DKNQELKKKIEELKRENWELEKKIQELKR

4H2697-bA = biological target: T52, 4H2697-bA; assay: two-hybrid library CCNG1
T52 chain: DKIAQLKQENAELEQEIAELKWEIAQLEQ

4H3185-bA = biological target: T53, 4H3185-bA; assay: two-hybrid library CCNG1
T53 chain: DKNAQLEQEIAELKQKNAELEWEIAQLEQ

4H967-bA = biological target: T54, 4H967-bA; assay: two-hybrid library CCNG1
T54 chain: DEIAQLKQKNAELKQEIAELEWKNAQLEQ

4H717-bA = biological target: T55, 4H717-bA; assay: two-hybrid library CCNG1
T55 chain: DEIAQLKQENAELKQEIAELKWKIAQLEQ

P7A-bS = biological target: T56, P7A-bS; assay: two-hybrid library CCNG1
T56 chain: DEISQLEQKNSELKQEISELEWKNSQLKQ

P5A-bS = biological target: T57, P5A-bS; assay: two-hybrid library CCNG1
T57 chain: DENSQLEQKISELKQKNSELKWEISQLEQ

P6A-bS = biological target: T58, P6A-bS; assay: two-hybrid library CCNG1
T58 chain: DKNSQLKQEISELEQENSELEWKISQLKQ

P8A-bS = biological target: T59, P8A-bS; assay: two-hybrid library CCNG1
T59 chain: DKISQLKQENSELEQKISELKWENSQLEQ

P9A-bS = biological target: T60, P9A-bS; assay: two-hybrid library CCNG1
T60 chain: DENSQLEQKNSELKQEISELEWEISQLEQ

4H855-bH = biological target: T61, 4H855-bH; assay: two-hybrid library CCNG1
T61 chain: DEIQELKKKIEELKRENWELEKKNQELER

4H918-bH = biological target: T62, 4H918-bH; assay: two-hybrid library CCNG1
T62 chain: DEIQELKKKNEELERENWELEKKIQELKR

4H953-bH = biological target: T63, 4H953-bH; assay: two-hybrid library CCNG1
T63 chain: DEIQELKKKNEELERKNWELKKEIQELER

4H968-bH = biological target: T64, 4H968-bH; assay: two-hybrid library CCNG1
T64 chain: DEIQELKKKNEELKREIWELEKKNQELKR

interaction score (4H4033-AA): 1.31
interaction score (4H481-AA): 1.84
interaction score (4H55-AA): -1.77
interaction score (4H2536-AA): -1.01
interaction score (4H2726-AA): -0.445
interaction score (4H3664-AA): -1.15
interaction score (4H2614-AA): -1.25
interaction score (4H2513-AA): 2.15
interaction score (4H3605-AA): -0.657
interaction score (4H2935-AA): -1.18
interaction score (4H3922-AA): 1.59
interaction score (4H2608-AA): -1.6
interaction score (4H327-AA): -0.966
interaction score (4H662-AA): 1.18
interaction score (4H2238-AA): -0.902
interaction score (4H369-AA): 2.28
interaction score (4H3625-AA): -1.18
Binder: DKIAALEAENAALEAKNAALKAKIAALKG [4H2238-AA]

interaction score (4H454-bA): 1.25
interaction score (4H953-bA): -0.966
interaction score (4H3855-bA): -0.565
interaction score (4H754-bA): -1.06
interaction score (4H370-bA): -0.0583
interaction score (4H2667-bA): 0.263
interaction score (4H338-bA): 0.164
interaction score (4H607-bA): -1.24
interaction score (4H3189-bA): -0.909
interaction score (4H72-bA): 0.976
interaction score (4H908-bA): -0.691
interaction score (4H3606-bA): 0.0163
interaction score (4H918-bA): -1.68
interaction score (4H883-bA): -0.985
interaction score (4H3427-bA): 0.719
interaction score (4H797-bA): -1.09
interaction score (4H3297-bA): 0.0617
interaction score (4H3112-bA): 0.96
interaction score (P4A-bS): -1.72
interaction score (4H2729-bA): 0.719
interaction score (4H3354-bA): -0.643
interaction score (4H3843-bA): 1.49
interaction score (4H568-bA): 0.688
interaction score (4H462-bA): -0.172
interaction score (4H331-bA): 0.846
interaction score (4H687-bA): -1.37
interaction score (4H3782-bA): -0.43
interaction score (4H4001-bA): 1.02
interaction score (4H3926-bH): -1.75
interaction score (4H2697-bA): 0.478
interaction score (4H3185-bA): -0.669
interaction score (4H967-bA): -1.08
interaction score (4H717-bA): -1.61
Binder: DKIAQLKQEIAELKQKIAELKWENAQLEQ [4H2667-bA]

Further lines, the binder ahead of its results:

Binder: DKIQQLKQKIQELKQENQELEWENQELEQ [P4A-bN]
interaction score (P8A-bN): -0.841
interaction score (P6A-bN): -1.54
interaction score (P4A-bN): -1.26
interaction score (P9A-bN): -0.681
interaction score (P7A-bN): -1.45

Binder: DKISQLKQKISELKQENSELEWENSQLEQ [P4A-bS]
interaction score (P7A-bS): -0.905
interaction score (P4A-bS): -1.08
interaction score (P5A-bS): -0.436
interaction score (P6A-bS): -1.51
interaction score (P8A-bS): -0.866
interaction score (P9A-bS): -2

Binder: DEIQELKKKIEELKRENWELEKKNQELER [4H855-bH]
interaction score (4H855-bH): -0.389
interaction score (4H918-bH): -0.637
interaction score (P4A-bN): -0.185
interaction score (4H953-bH): -1.14
interaction score (4H968-bH): 0.133
